Drawing on US20110143993A1, “ENDOTHELIAL BASEMENT MEMBRANE TARGETING PEPTIDE LIGANDS” (The Brigham and Women's Hospital, Inc., priority 2009, published 2011), this text covers IC50 and fold binding compared to the library (R0), phage titer for five molecules.

In assay [1] the target is Matrigel growth factor reduced LDEV free (basement membrane extract rich in collagen IV and laminin). In words: competition ELISA: synthetic peptide (10^-5-10^-10 M) against 10^9 pfu cognate phage clone on Matrigel-coated plate, anti-M13/ABTS. (In general: An ELISA detects its analyte on a solid surface through an enzyme-linked reagent.)
Assay [2] has as its target human collagen IV (human) (UniProt P02462). In words: phage titer count of eluted phage, input 10^12/mL p.f.u., against random library R0, n=3.
The target in assay [3] is Matrigel growth factor reduced LDEV free (basement membrane extract rich in collagen IV and laminin). The experiment in a line: competition of phage-displayed peptide against synthetic peptide on Matrigel.

No end group written: not given here.

On to KVWSLPQGGGC-NH2 [synthetic peptide modeled after phage clone A-8 (KVWSLPQ with C-terminal GGGC linker, amidated)], for which, in assay [1], the IC50 came to 1200 nM.

KLWVLPK (peptide, not shown: large carriers) [phage clone C-11 (KLWVLPK displayed on pIII of M13 phage)]: the fold binding compared to the library (R0), phage titer in assay [2] was 900 fold.

Molecule KIWKLPQGGGC-NH2 [synthetic peptide modeled after phage clone C-10 (KIWKLPQ with C-terminal GGGC linker, amidated)] had an IC50 in assay [1] of 917 nM.

For KIFVWPYGGGC-NH2 [synthetic peptide modeled after phage clone A-9 (KIFVWPY with C-terminal GGGC linker, amidated)], in assay [1], the half-maximal inhibitory concentration (IC50) was determined as 551 nM.

For the molecule KLWVLPKGGGC-NH2 [synthetic peptide modeled after phage clone C-11 (…-Am)], the IC50 in assay [1] stood at 117 nM; in assay [3] it was 114 nM.

The term IC50 denotes the concentration that inhibits the measured activity by half. Low values mean greater potency, high ones weaker potency.
